In patent publication US8299028B2, “Chimeric peptide antagonist for GPCR135 or GPCR142” (Janssen Pharmaceutica NV, priority 2007, dated 2012):

Tests used:
[1] = biological target: T1, human LGR7 (Homo sapiens, UniProt Q9HBX9); test: Radioligand binding assay, 125I-relaxin-2 tracer, COS-7 cells expressing LGR7; design: expressed in transfected cells
T1 sequence (Q9HBX9 1-757): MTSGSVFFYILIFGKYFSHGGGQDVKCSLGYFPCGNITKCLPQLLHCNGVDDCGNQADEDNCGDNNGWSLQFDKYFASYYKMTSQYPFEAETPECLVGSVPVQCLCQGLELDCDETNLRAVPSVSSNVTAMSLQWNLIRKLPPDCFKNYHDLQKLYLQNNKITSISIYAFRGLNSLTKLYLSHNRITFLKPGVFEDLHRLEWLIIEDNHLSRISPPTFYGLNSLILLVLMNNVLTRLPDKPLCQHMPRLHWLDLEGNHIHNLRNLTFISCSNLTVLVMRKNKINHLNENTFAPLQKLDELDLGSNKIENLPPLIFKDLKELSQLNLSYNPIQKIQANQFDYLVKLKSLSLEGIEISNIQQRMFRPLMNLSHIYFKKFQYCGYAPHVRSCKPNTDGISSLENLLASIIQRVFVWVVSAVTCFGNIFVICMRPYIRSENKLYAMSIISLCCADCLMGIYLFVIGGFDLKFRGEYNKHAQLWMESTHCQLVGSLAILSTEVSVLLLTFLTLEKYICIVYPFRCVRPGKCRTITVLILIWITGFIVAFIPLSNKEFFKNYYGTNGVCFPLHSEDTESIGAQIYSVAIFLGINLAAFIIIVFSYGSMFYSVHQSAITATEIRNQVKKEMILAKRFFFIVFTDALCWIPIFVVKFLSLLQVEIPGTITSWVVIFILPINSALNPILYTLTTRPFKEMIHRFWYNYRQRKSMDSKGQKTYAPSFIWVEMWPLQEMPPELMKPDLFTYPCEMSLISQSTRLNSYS
From the text: COS-7 cells in 24-well tissue culture plates transiently expressing GPCR135, GPCR142 or LGR7 were used in radioligand binding assays as described by Liu et al., 2005a, J. Biol. Chem., 280:292-300. ^125I-Relaxin-3/INSL5 (^125I-R3/I5), a radiolabeled chimeric peptide with the human relaxin-3 B-chain and the human INSL5 A-chain (Liu et al., 2005b), was used at a final concentration of 50 pM as the tracer to characterize the binding properties of all truncated relaxin-3 peptides for GPCR135 and GPCR142. ^125I-relaxin-2 (PerkinElmer Biosciences, Boston) was used at a final concentration of 50 pM to characterize the binding properties of the truncated peptides for the relaxin receptor (LGR7). The results were analyzed by GraphPad Prism 4.0 software (Graphpad, San Diego). The IC50 values, which are the ligand concentrations that inhibited 50% of the maximum specific binding, were then calculated.

[2] = biological target: T2, human GPCR135 (Homo sapiens, UniProt Q9NSD7); test: Antagonism: rightward shift of relaxin-3 dose-response curve, SK-N-MC/CRE-β-gal reporter assay; type: cell-based; design: expressed in transfected cells; details: pharmacological characterization
T2 sequence (Q9NSD7 1-469): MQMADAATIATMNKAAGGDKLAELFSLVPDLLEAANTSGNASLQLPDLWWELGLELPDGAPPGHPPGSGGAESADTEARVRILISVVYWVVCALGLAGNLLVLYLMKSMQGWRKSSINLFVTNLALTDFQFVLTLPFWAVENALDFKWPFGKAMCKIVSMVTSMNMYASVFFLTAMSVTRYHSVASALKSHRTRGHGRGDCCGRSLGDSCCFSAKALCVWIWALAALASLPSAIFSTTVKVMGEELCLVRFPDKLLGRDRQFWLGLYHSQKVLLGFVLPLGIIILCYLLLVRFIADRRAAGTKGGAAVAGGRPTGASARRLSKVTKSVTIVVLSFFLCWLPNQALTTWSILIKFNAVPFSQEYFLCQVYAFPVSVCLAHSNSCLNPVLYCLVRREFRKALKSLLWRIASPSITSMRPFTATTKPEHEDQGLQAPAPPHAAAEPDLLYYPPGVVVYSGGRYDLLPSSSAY
Experimental: In a functional assay using SK-N-MC/CRE-β-gal cells expressing human GPCR135 (A), GPCR142 (B) or LGR7 (C), ascending concentrations of relaxin-3 (R3) were used to generate dose response curves either in the absence or presence of 10 nM, 100 nM or 1 μM R3(BΔ23-27)R/I5. For Gαi linked GPCR135 and GPCR142, the assay was performed as inhibition of forskolin-induced β-gal expression. LGR7 is linked to Gαs, therefore addition of forskolin is not necessary. The antagonism of R3(BΔ23-27)R/I5 is indicated by the rightward-shift of the relaxin-3's dose-response curve.
All peptides were tested for their GPCR135, GPCR142, and LGR7 agonist activities in SK-N-MC/CRE cells expressing the relevant receptors as described by Liu et al., 2005b. […] An increase in cAMP concentration in these cells is associated with increased β-gal expression, which can be measured using Chlorophenol Red-β-D-Galactopyranoside (CRGP) as a substrate and reading the optical absorbance at 570 nm. […] The results were analyzed using GraphPad Prism 4.0 software. […] The agonism and antagonism of peptides for rat LGR7 was assayed using a cAMP luminescence assay. […] The cAMP in the cells was measured with a cAMP detection kit (DiscoveRx HitHunter, Cat. #90-0041) according to the manufacturer's protocol. The results were analyzed using GraphPad Prism 4.0 software.

Substance: R3(BΔ23-27)R: Relaxin-3 mutant: B-chain SEQ ID NO:15 (Gly23-Trp27 deleted plus C-terminal Arg), relaxin-3 A-chain SEQ ID NO:13
- affinity of human LGR7 [1]: low affinity
- GPCR135 antagonist character [2]: GPCR135 antagonists
